Changes are numbered by the printed parent chain. Numbers in names are those of the source.
Experiments:
Type in all cases: cell-based
Lenti-X 293T cells = assay: YFP fluorescence quenching anion reporter plate reader assay of engineered receptors stimulated with acetylcholine or a non-native ligand; settings: for percent quench of YFP fluorescence, 10 uM ach: acetylcholine 10 uM; for percent quench of YFP fluorescence, 100 uM ach: acetylcholine 100 uM; for percent quench of YFP fluorescence, 1 mM ach: acetylcholine 1 mM; for percent quench of YFP fluorescence, 3 mM ach: acetylcholine 3 mM
Outline: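 Lenti-X 293T cells carrying a YFP anion reporter were transiently transfected with channel DNA and assayed the next day in HEPES-buffered ECS at pH 7.2. Ligand (acetylcholine or non-native ligand) was added in NaI-substituted ECS. Percent quench was the mean of the last 10 s relative to the 15 s pre-addition baseline.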

HEK293T cells = assay: High throughput electrophysiology (IonFlux automated patch clamp), EC50 of engineered receptors to ligands
Procedure: To confirm the EC50s determined by plate reader as well as develop a better understanding of maximum current flow, the engineered receptors were subjected to high throughput electrophysiology system, as described below. For HEK293T studies, cDNAs encoding ion channels were cloned into pcDNA3.1 using standard recombination techniques. HEK293T cells from Clontech (Lenti-X™ 293T Cell Line) were cultured in DMEM supplemented with 10% FBS and 1% Pen/Strep to 40-50% confluence using standard cell culture protocols, transfected with ion channel plasmids at a concentration of 18 μg per 15 cm dish using Fugene 6, and grown for an additional 24 hours. Cells were then assayed on an electrophysiological system (IonFluxHT and/or Mercury, Fluxion Biosciences) in which dose-response relationships may be assessed through a microfluidics-based platform for establishing whole cell configurations. Ensemble plates were primed with extracellular buffer (140 mM NaCl, 5 mM KCl, 2 mM CaCl2), 1 mM MgCl2, 10 mM HEPES, and 10 mM glucose, pH 7.2 with NaOH, mOsm 310), intracellular buffer (145 mM CsCl, 2 mM CaCl2), 2 mM MgCl2, 10 mM HEPES, and 10 mM EGTA, pH 7.2 with CsOH, mOsm 305), as adapted from Lynagh and Lynch, and test compounds (stocks prepared fresh) diluted in extracellular buffer. Cells were then released from the plate with Accutase, centrifuged, resuspended in extracellular buffer, and loaded into Ensemble plates. Cells were then subjected to a standard protocol for priming, trapping, breaking, and establishing whole cell configuration, with cells held at −60 mV throughout the recording. After recording baseline, progressive doses of test compounds were applied using the IonFlux software to assess dose response relationships. Data were then analyzed off-line using custom Python scripts to convert data to .csv format, re-plot traces, and apply QC measurements to reject unstable recordings (i.e. thresholding based on access resistance and/or standard deviation in baseline, as well as artifact rejection). Peak currents were then calculated, and population data were fit using a 4-parameter logistic equation as described by the Hill Equation. Currents were measured on an automated patch clamp system (Fluxion Biosciences) following 1 second addition of drug and the EC50 values calculated are tabulated below in Table 22 below and Table 21 above (in Example 2).

rat hippocampal neurons [1] = assay: Evoked rheobase shift in rat hippocampal neurons (current clamp)
Procedure: (§1) For manual patch clamp experiments, Cells plated on coverslips were visualized at 10× and 40× on an inverted fluorescence microscope (Olympus). Recordings were made with an Axopatch 200B amplifier and Digidata 1550B (Molecular Devices) at RT using 3-6 MOhm glass patch electrodes (Sutter, BF150-86-10). Unless otherwise stated, recordings were made in extracellular solution (ECS) containing: 140 mM sodium chloride, 4 mM potassium chloride, 1 mM magnesium chloride, 2 mM calcium chloride, 10 mM HEPES, and 10 mM D-(+)-glucose (pH=7.3 with sodium hydroxide, osmolarity=305−315 mOsm). An 8-line reservoir (AutoMate Scientific) in combination with an 8-channel zero-dead-volume perfusion pencil (AutoMate Scientific) was used for perfusion. Data was acquired using pClamp software (Molecular Devices). Traces were either analyzed in Clampfit (Molecular Devices) or using custom Python code. Plotting and statistics were performed in GraphPad Prism.
No holding current was applied to the membrane for cells included in the final datasets. Data acquisition settings and analysis methods were the same as for the DRG rheobase experiments.

rat hippocampal neurons [2] = assay: Spontaneous firing rate of rat hippocampal neurons (current clamp)
Procedure: as §1, with “Plotting and statistics were performed in GraphPad Prism.” left out
Spontaneous activity was recorded in gapfree mode, in the presence and absence of a compound. […] For both methods, minimum height, average height, maximum height were measured and frequency was calculated as the number of events in the epoch divided by the length of time of the epoch. For Clampfit, the resting membrane potential was measured at 3 points between events and averaged for each epoch. […] For both methods, membrane potential was corrected for the calculated liquid junction potential. […]

B1: CODA536: engineered chimeric LGIC receptor, L131D, S172D in SEQ ID NO: 33 (protein)
chain: MRCSPGGVWLALAASLLHVSLQGEFQRKLYKELVKNYNPLERPVANDSQPLTVYFSLSLLQIMDVDEKNQVLTTNIWLQMSWTDHYLQWNVSEYPGVKTVRFPDGQIWKPDILLYNSADERFDATFHTNVDVNSSGHCQYLPPGIFKSSCPMDLKNFPMDVQTCKLKFGSWDYGGWSLDLQMQEADISGYIPNGEWDLVGIPGKRSERFYECCKEPYPDVTFTVTMRRRMGYYLIQMYIPSLLIVILSWISFWINMDAAPARVGLGITTVLTMTTQSSGSRASLPKVSYVKAIDIWMAVCLLFVFSALLEYAAVNFVSRQHKELLRFRRKRRHHKSPMLNLFQEDEAGEGRFNFSAYGMGPACLQAKDGISVKGANNSNTTNPPPAPSKSPEEMRKLFIQRAKKIDKISRIGFPMAFLIFNMFYWIIYKIVRREDVHNQ
modifications: synthetic sequence of chimeric LGIC
YFP fluorescence quenching using TC-5619/Bradanicline (Lenti-X 293T cells; 1 nM brd): −1.24% | YFP fluorescence quenching using TC-5619/Bradanicline (Lenti-X 293T cells; 3 nM brd): 0.25% | YFP fluorescence quenching using TC-5619/Bradanicline (Lenti-X 293T cells; 10 nM brd): −2.57% | YFP fluorescence quenching using TC-5619/Bradanicline (Lenti-X 293T cells; 30 nM brd): 0.78% | YFP fluorescence quenching using Facinicline (Lenti-X 293T cells; 30 nM fac): 24.15 | YFP fluorescence quenching using ABT-126 (Lenti-X 293T cells; 50 nM abt): −3.19% | YFP fluorescence quenching using CNL002 (Lenti-X 293T cells; 100 nM CNL002): 71.72% | YFP fluorescence quenching using ABT-126 (Lenti-X 293T cells; 100 nM abt): 7.58% | YFP fluorescence quenching using AZD-0328 (Lenti-X 293T cells; 100 nM azd0328): 51.44% | YFP fluorescence quenching using TC-5619/Bradanicline (Lenti-X 293T cells; 100 nM brd): 4.51% | YFP fluorescence quenching using ABT-126 (Lenti-X 293T cells; 300 nM abt): −1.65% | YFP fluorescence quenching using AZD-0328 (Lenti-X 293T cells; 300 nM azd0328): 77.12% | YFP fluorescence quenching using TC-5619/Bradanicline (Lenti-X 293T cells; 300 nM brd): 30.97% | YFP fluorescence quenching using Facinicline (Lenti-X 293T cells; 300 nM fac): 80.17 | YFP fluorescence quenching using CNL002 (Lenti-X 293T cells; 1 uM CNL002): 77.26% | YFP fluorescence quenching using ABT-126 (Lenti-X 293T cells; 1 uM abt): 31.29% | YFP fluorescence quenching using TC-5619/Bradanicline (Lenti-X 293T cells; 1 uM brd): 44.41% | YFP fluorescence quenching using TC-6987 (Lenti-X 293T cells; 1 uM tc6987): −18.24 | YFP fluorescence quenching using Facinicline (Lenti-X 293T cells; 10 uM fac): 81.34 | YFP fluorescence quenching using TC-6987 (Lenti-X 293T cells; 10 uM tc6987): −23.06 | YFP fluorescence quenching using CNL002 (Lenti-X 293T cells; 30 uM CNL002): 77.5% | YFP fluorescence quenching using AZD-0328 (Lenti-X 293T cells; 30 uM azd0328): 79.26% | YFP fluorescence quenching using Facinicline (Lenti-X 293T cells; 30 uM fac): 79.9 | YFP fluorescence quenching using TC-6987 (Lenti-X 293T cells; 500 uM tc6987): −19.3 | percent quench of YFP fluorescence, 30 nM TC-6683 (Lenti-X 293T cells; TC-6683 30 nM): −22.285% | percent quench of YFP fluorescence, 300 nM TC-6683 (Lenti-X 293T cells; TC-6683 300 nM): −23.926% | percent quench of YFP fluorescence, 3 uM TC-6683 (Lenti-X 293T cells; TC-6683 3 uM): −20.514% | percent quench of YFP fluorescence, 30 uM TC-6683 (Lenti-X 293T cells; TC-6683 30 uM): −3.078% | percent quench of YFP fluorescence, 100 uM TC-6683 (Lenti-X 293T cells; TC-6683 100 uM): 7.37% | percent quench of YFP fluorescence, 10 uM ach (Lenti-X 293T cells): −12.91% | percent quench of YFP fluorescence, 100 uM ach (Lenti-X 293T cells): −20.88% | percent quench of YFP fluorescence, 1 mM ach (Lenti-X 293T cells): 79.85% | percent quench of YFP fluorescence, 3 mM ach (Lenti-X 293T cells): 79.98% | fold increased potency towards AZD-0328 compared with wild type receptor (HEK293T cells; ligand AZD-0328): at least 10 fold | fold increased potency towards RG-3487 compared with wild type receptor (HEK293T cells; ligand RG-3487): at least 10 fold

B2: CODA1140: engineered chimeric LGIC receptor, R101F, L131N, S172D in SEQ ID NO: 33 (protein)
chain: B1 chain with R101F, D131N
modifications: synthetic sequence of chimeric LGIC
YFP fluorescence quenching using CNL001 (Lenti-X 293T cells; 1 nM CNL001, first column): 52.592% | YFP fluorescence quenching using CNL001 (Lenti-X 293T cells; 1 nM CNL001, second column): 61.248% | YFP fluorescence quenching using CNL002 (Lenti-X 293T cells; 1 nM CNL002): 0.337% | YFP fluorescence quenching using Varenicline (Lenti-X 293T cells; 3 nM var, first column): −6.169 | YFP fluorescence quenching using Varenicline (Lenti-X 293T cells; 3 nM var, second column): −10.445 | YFP fluorescence quenching using CNL001 (Lenti-X 293T cells; 10 nM CNL001, first column): 71.678% | YFP fluorescence quenching using CNL001 (Lenti-X 293T cells; 10 nM CNL001, second column): 71.881% | YFP fluorescence quenching using CNL002 (Lenti-X 293T cells; 10 nM CNL002): 59.894% | YFP fluorescence quenching using Varenicline (Lenti-X 293T cells; 30 nM var, first column): −9.679 | YFP fluorescence quenching using Varenicline (Lenti-X 293T cells; 30 nM var, second column): −10.878 | YFP fluorescence quenching using CNL001 (Lenti-X 293T cells; 50 nM CNL001, first column): 73.807% | YFP fluorescence quenching using CNL001 (Lenti-X 293T cells; 50 nM CNL001, second column): 75.649% | YFP fluorescence quenching using CNL002 (Lenti-X 293T cells; 50 nM CNL002): 76.501% | YFP fluorescence quenching using ABT-126 (Lenti-X 293T cells; 50 nM abt): −7.87% | YFP fluorescence quenching using CNL001 (Lenti-X 293T cells; 100 nM CNL001, first column): 76% | YFP fluorescence quenching using CNL001 (Lenti-X 293T cells; 100 nM CNL001, second column): 76.329% | YFP fluorescence quenching using CNL002 (Lenti-X 293T cells; 100 nM CNL002): 79.03% | YFP fluorescence quenching using ABT-126 (Lenti-X 293T cells; 100 nM abt): −5.35% | YFP fluorescence quenching using ABT-126 (Lenti-X 293T cells; 300 nM abt): −3.67% | YFP fluorescence quenching using Varenicline (Lenti-X 293T cells; 300 nM var, first column): −9.572 | YFP fluorescence quenching using Varenicline (Lenti-X 293T cells; 300 nM var, second column): −8.873 | YFP fluorescence quenching using Varenicline (Lenti-X 293T cells; 500 nM var, first column): −14.656 | YFP fluorescence quenching using Varenicline (Lenti-X 293T cells; 500 nM var, second column): −11.304 | YFP fluorescence quenching using CNL001 (Lenti-X 293T cells; 1 uM CNL001, first column): 76.168% | YFP fluorescence quenching using CNL001 (Lenti-X 293T cells; 1 uM CNL001, second column): 74.076% | YFP fluorescence quenching using CNL002 (Lenti-X 293T cells; 1 uM CNL002): 82.85% | YFP fluorescence quenching using ABT-126 (Lenti-X 293T cells; 1 uM abt): 3.64% | YFP fluorescence quenching using Varenicline (Lenti-X 293T cells; 1 uM var, first column): −13.996 | YFP fluorescence quenching using Varenicline (Lenti-X 293T cells; 1 uM var, second column): −16.128 | YFP fluorescence quenching using ABT-126 (Lenti-X 293T cells; 10 uM abt): 5.91% | percent quench of YFP fluorescence, 10 uM ach (Lenti-X 293T cells): −20.07% | percent quench of YFP fluorescence, 30 uM ach (Lenti-X 293T cells; acetylcholine 30 uM): −16.92% | percent quench of YFP fluorescence, 100 uM ach (Lenti-X 293T cells): −25.8% | percent quench of YFP fluorescence, 300 uM ach (Lenti-X 293T cells; acetylcholine 300 uM): −11.21% | percent quench of YFP fluorescence, 1 mM ach (Lenti-X 293T cells): 9.02% | percent quench of YFP fluorescence, 3 mM ach (Lenti-X 293T cells): 45% | Rheobase Shift Evoked; Rat Hippocampal Neurons, +CNL002 @ EC90 (rat hippocampal neurons [1]; +CNL002 @ EC90): 296.9 ± 72.65 pA | Rheobase Shift Evoked; Rat Hippocampal Neurons, Baseline (rat hippocampal neurons [1]; Baseline, no ligand): 40.63 ± 10.50 pA | Firing Rate Spontaneous; Rat Hippocampal Neurons, +CNL002 @ EC90 (rat hippocampal neurons [2]; +CNL002 @ EC90): 0.71 ± 0.29 Hz | Firing Rate Spontaneous; Rat Hippocampal Neurons, Baseline (rat hippocampal neurons [2]; Baseline, no ligand): 3.29 ± 0.75 Hz

From patent US20240317834A1, “COMPOSITIONS AND METHODS FOR NEUROLOGICAL DISEASES” (CODA BIOTHERAPEUTICS, INC., priority 2020, published 2024)
